Substitutions are numbered along the chain they refer to.
Experiments:
Assay in all cases: EMSA
Conditions in all cases: 10 mM Tris-HCl pH 8, 50 mM KCl, 0.5 mM EDTA, 10% glycerol, 0.5 mM DTT, 10 nM DNA, 25°C 25 min; 8% PAGE in 0.5x TBE
[1] = molecular target: T1, SydR' C114S (CS) C114S (Sinorhizobium meliloti Rm2011) (UniProt Q92XY2)
T1 sequence: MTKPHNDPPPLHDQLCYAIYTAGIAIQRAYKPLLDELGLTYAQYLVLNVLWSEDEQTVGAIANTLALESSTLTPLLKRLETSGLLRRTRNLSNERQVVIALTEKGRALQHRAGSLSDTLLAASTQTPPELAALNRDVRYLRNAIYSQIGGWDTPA

[2] = molecular target: T2, SydR' C16S (SC) C16S (Sinorhizobium meliloti Rm2011) (UniProt Q92XY2)
T2 sequence: T1 sequence with C16S, S114C

[3] = molecular target: T3, SydR' C16S&C114S (SS) C16S;C114S (Sinorhizobium meliloti Rm2011) (UniProt Q92XY2)
T3 sequence: T1 sequence with C16S

TCTGGGCTCCTTTGCGCACCAATATAATCAAGATTACCGCGAAAACCAATATCGCGATAAGAGATATGTTGACGAGCAGTTCAATATCTGACAACTTAAATATATCGCGATAACAGTTATCGCTATCAACGAAAGGAAAAAGCC (double strand) [sydR-SMa2023 intergenic region, 144 bp]
binding [1]: binds
binding [2]: binds more weakly
binding [3]: binds more weakly
